Experimental data reported in the supplement of paper PMC11246515.
± gives the standard deviation of the averaged measurements.

Test: total protein half-life in vivo (active degradation + dilution); higher = more stable protein
[1] = wild type E. coli NCM3722, growth: C-lim chemostat, doubling time 3 h
[2] = wild type E. coli NCM3722, growth: C-lim chemostat, doubling time 6 h
[3] = wild type E. coli NCM3722, growth: C-lim chemostat, doubling time 12 h
[4] = E. coli NCM3722 delta-clpP delta-lon delta-hslV, growth: N-lim chemostat, doubling time 6 h
[5] = E. coli NCM3722 delta-clpP, growth: N-lim chemostat, doubling time 6 h
[6] = E. coli NCM3722 delta-hslV, growth: N-lim chemostat, doubling time 6 h
[7] = E. coli NCM3722 delta-lon, growth: N-lim chemostat, doubling time 6 h
[8] = E. coli NCM3722 delta-smpB, growth: N-lim chemostat, doubling time 6 h
[9] = wild type E. coli NCM3722, growth: N-lim chemostat, doubling time 6 h
[10] = wild type E. coli NCM3722, growth: N-lim chemostat, doubling time 12 h
[11] = wild type E. coli NCM3722, growth: P-lim chemostat, doubling time 6 h
[12] = wild type E. coli NCM3722, growth: P-lim chemostat, doubling time 12 h

| Sequence | total protein half-life in vivo [1] | total protein half-life in vivo [2] | total protein half-life in vivo [3] | total protein half-life in vivo [4] | total protein half-life in vivo [5] | total protein half-life in vivo [6] | total protein half-life in vivo [7] | total protein half-life in vivo [8] | total protein half-life in vivo [9] | total protein half-life in vivo [10] | total protein half-life in vivo [11] | total protein half-life in vivo [12] |
| --- | --- | --- | --- | --- | --- | --- | --- | --- | --- | --- | --- | --- |
| MKHLTEMVRQHKAGKTNGIYAVCSAHPLVLEAAIRYASANQTPLLIEATSNQVDQFGGYTGMTPADFRGFVCQLADSLNFPQDALILGGDHLGPNRWQNLPAAQAMANADDLIKSYVAAGFKKIHLDCSMSCQDDPIPLTDDIVAERAARLAKVAEETCLEHFGEADLEYVIGTEVPVPGGAHETLSELAVTTPDAARATLEAHRHAFEKQGLNAIWPRIIALVVQPGVEFDHTNVIDYQPAKASALSQMVENYETLIFEAHSTDYQTPQSLRQLVIDHFAILKVGPALTFALREALFSLAAIEEELVPAKACSGLRQVLEDVMLDRPEYWQSHYHGDGNARRLARGYSYSDRVRYYWPDSQIDDAFAHLVRNLADSPIPLPLISQYLPLQYVKVRSGELQPTPRELIINHIQDILAQYHTACEGQ [P0C8K0] | 2.63 ± 0.042 h | 3.29 h | 5 ± 1.3 h |  |  |  |  |  |  |  |  |  |
| MADRNLRDLLAPWVPDAPSRALREMTLDSRVAAAGDLFVAVVGHQADGRRYIPQAIAQGVAAIIAEAKDEATDGEIREMHGVPVIYLSQLNERLSALAGRFYHEPSDNLRLVGVTGTNGKTTTTQLLAQWSQLLGEISAVMGTVGNGLLGKVIPTENTTGSAVDVQHELAGLVDQGATFCAMEVSSHGLVQHRVAALKFAASVFTNLSRDHLDYHGDMEHYEAAKWLLYSEHHCGQAIINADDEVGRRWLAKLPDAVAVSMEDHINPNCHGRWLKATEVNYHDSGATIRFSSSWGDGEIESHLMGAFNVSNLLLALATLLALGYPLADLLKTAARLQPVCGRMEVFTAPGKPTVVVDYAHTPDALEKALQAARLHCAGKLWCVFGCGGDRDKGKRPLMGAIAEEFADVAVVTDDNPRTEEPRAIINDILAGMLDAGHAKVMEGRAEAVTCAVMQAKENDVVLVAGKGHEDYQIVGNQRLDYSDRVTVARLLGVIA | 2.65 ± 0.31 h | 5.8 ± 0.085 h | 9.05 ± 0.4 h | 5.09 ± 0.76 h | 3.51 ± 0.15 h | 3.43 ± 0.23 h | 4.497 ± 0.044 h | 3.39 ± 0.23 h | 3.71 ± 0.04 h | 6.39 ± 0.93 h | 5.18 ± 0.14 h | 8.724 ± 0.074 h |
| MTDIAQLLGKDADNLLQHRCMTIPSDQLYLPGHDYVDRVMIDNNRPPAVLRNMQTLYNTGRLAGTGYLSILPVDQGVEHSAGASFAANPLYFDPKNIVELAIEAGCNCVASTYGVLASVSRRYAHRIPFLVKLNHNETLSYPNTYDQTLYASVEQAFNMGAVAVGATIYFGSEESRRQIEEISAAFERAHELGMVTVLWAYLRNSAFKKDGVDYHVSADLTGQANHLAATIGADIVKQKMAENNGGYKAINYGYTDDRVYSKLTSENPIDLVRYQLANCYMGRAGLINSGGAAGGETDLSDAVRTAVINKRAGGMGLILGRKAFKKSMADGVKLINAVQDVYLDSKITIA [P0A991] | 3.37 ± 0.44 h | 6.705 ± 0.067 h | 12.9 ± 0.75 h | 6.08 ± 0.41 h | 5.88 ± 0.5 h | 6.17 ± 0.49 h | 5.99 ± 0.7 h | 5.21 ± 0.23 h | 5.51 ± 0.26 h | 10.1 ± 0.44 h | 6.06 ± 0.11 h | 13.3 ± 0.99 h |
| MSLDINQIALHQLIKRDEQNLELVLRDSLLEPTETVVEMVAELHRVYSAKNKAYGLFSEESELAQTLRLQRQGEEDFLAFSRAATGRLRDELAKYPFADGGFVLFCHYRYLAVEYLLVAVLSNLSSMRVNENLDINPTHYLDINHADIVARIDLTEWETNPESTRYLTFLKGRVGRKVADFFMDFLGASEGLNAKAQNRGLLQAVDDFTAEAQLDKAERQNVRQQVYSYCNEQLQAGEEIELKSLSKELAGVSEVSFTEFAAEKGYELEESFPADRSTLRQLTKFAGSGGGLTINFDAMLLGERIFWDPATDTLTIKGTPPNLRDQLQRRTSGGN | 3.22 ± 0.17 h | 6.07 ± 0.17 h | 10.4 ± 2.2 h | 6.4 ± 0.28 h | 6.91 ± 0.46 h | 5.81 ± 0.19 h | 5.78 ± 0.17 h | 5.911 ± 0.055 h | 6.08 ± 0.28 h | 12 ± 2.2 h | 6.08 ± 0.094 h | 12.7 ± 0.4 h |
| MLKVLLLFVLLIAGIVVGPMIAGHQGYVLIQTDNYNIETSVTGLAIILILAMVVLFAIEWLLRRIFRTGAHTRGWFVGRKRRRARKQTEQALLKLAEGDYQQVEKLMAKNADHAEQPVVNYLLAAEAAQQRGDEARANQHLERAAELAGNDTIPVEITRVRLQLARNENHAARHGVDKLLEVTPRHPEVLRLAEQAYIRTGAWSSLLDIIPSMAKAHVGDEEHRAMLEQQAWIGLMDQARADNGSEGLRNWWKNQSRKTRHQVALQVAMAEHLIECDDHDTAQQIIIDGLKRQYDDRLLLPIPRLKTNNPEQLEKVLRQQIKNVGDRPLLWSTLGQSLMKHGEWQEASLAFRAALKQRPDAYDYAWLADALDRLHKPEEAAAMRRDGLMLTLQNNPPQ [P0ACB7] | 3.13 ± 0.12 h | 6.13 ± 0.2 h | 13.2 ± 0.85 h | 5.91 ± 0.1 h | 6.4161 ± 0.0029 h |  | 6.1592 ± 0.004 h | 5.98 ± 0.073 h | 6.64 ± 0.65 h | 12.6 ± 0.5 h | 6.1 ± 0.41 h | 12.6 ± 0.95 h |
| MLDKLRSRIVHLGPSLLSVPVKLTPFALKRQVLEQVLSWQFRQALDDGELEFLEGRWLSIHVRDIDLQWFTSVVNGKLVVSQNAQADVSFSADASDLLMIAARKQDPDTLFFQRRLVIEGDTELGLYVKNLMDAIELEQMPKALRMMLLQLADFVEAGMKTAPETKQTSVGEPC | 0.352 ± 0.048 h |  |  | 3.71 ± 1.3 h | 2.5 h |  |  | 0.825 ± 0.014 h |  |  | 0.825 h |  |
| MKIATIKTGLASLAMLPGLVMAAPAVADKADNAFMMICTALVLFMTIPGIALFYGGLIRGKNVLSMLTQVTVTFALVCILWVVYGYSLAFGEGNNFFGNINWLMLKNIELTAVMGSIYQYIHVAFQGSFACITVGLIVGALAERIRFSAVLIFVVVWLTLSYIPIAHMVWGGGLLASHGALDFAGGTVVHINAAIAGLVGAYLIGKRVGFGKEAFKPHNLPMVFTGTAILYIGWFGFNAGSAGTANEIAALAFVNTVVATAAAILGWIFGEWALRGKPSLLGACSGAIAGLVGVTPACGYIGVGGALIIGVVAGLAGLWGVTMLKRLLRVDDPCDVFGVHGVCGIVGCIMTGIFAASSLGGVGFAEGVTMGHQLLVQLESIAITIVWSGVVAFIGYKLADLTVGLRVPEEQEREGLDVNSHGENAYNA |  |  |  | 5.75 ± 1.4 h | 4.24 ± 0.22 h | 5.51 ± 1.2 h | 5.81 ± 2 h | 4.6 ± 0.47 h | 4.78 ± 0.62 h | 8.59 ± 0.8 h |  |  |
